The values below come from article PMC9381590.

This experiment deals with endogenous PKM2 (human (endogenous in CRC cells)) (UniProt P14618). Put plainly: not stated; monomeric, dimeric and tetrameric forms of endogenous PKM2 in HCT116 cells with or without DDX39B overexpression (Supplementary Fig. 7c).

In general, stoichiometry N refers to a count of units in the complex or per binding partner.

endogenous PKM2, P14618 1-531 (natural protein; other documents disagree on this pair), sequence (P14618 whole entry): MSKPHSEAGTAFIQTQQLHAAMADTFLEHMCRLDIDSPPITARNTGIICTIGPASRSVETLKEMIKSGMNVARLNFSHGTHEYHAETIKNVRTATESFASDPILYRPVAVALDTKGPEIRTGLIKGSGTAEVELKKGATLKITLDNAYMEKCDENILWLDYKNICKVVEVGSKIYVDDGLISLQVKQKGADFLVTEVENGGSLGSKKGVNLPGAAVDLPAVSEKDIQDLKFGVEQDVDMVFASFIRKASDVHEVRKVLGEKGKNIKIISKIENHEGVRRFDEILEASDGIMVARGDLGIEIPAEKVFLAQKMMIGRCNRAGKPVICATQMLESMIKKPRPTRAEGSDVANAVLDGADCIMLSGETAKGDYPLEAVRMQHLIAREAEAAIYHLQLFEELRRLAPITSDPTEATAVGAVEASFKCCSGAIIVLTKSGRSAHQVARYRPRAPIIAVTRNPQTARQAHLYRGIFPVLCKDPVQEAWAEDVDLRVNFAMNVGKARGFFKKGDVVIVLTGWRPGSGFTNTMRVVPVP

The substance “endogenous PKM2, P14618 1-531 (natural protein; other documents disagree on this pair)” yielded a stoichiometry N of 2.
